# Measurements taken from US20170165373A1 (Amgen, published 2017).
# Substitutions are numbered along the chain they refer to. In names and notes the source's numbering stands.
# T1: human BCMA (huBCMA), full length, on cells (human, UniProt Q02223 1-184)
# T1 construct: also called native huBCMA; B-cell maturation antigen
# T1 chain: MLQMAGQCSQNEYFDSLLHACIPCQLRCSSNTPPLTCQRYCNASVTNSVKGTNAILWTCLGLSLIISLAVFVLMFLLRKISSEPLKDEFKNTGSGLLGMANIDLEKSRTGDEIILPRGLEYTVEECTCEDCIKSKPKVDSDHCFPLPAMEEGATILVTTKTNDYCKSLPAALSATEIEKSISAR
# T2: rhuBCMA fusion protein (6xHis::Sumo::huBCMA(aa 5-51)::GGS::G3::Avi) (human)
# T2 construct: Monomeric tagged fusion; the entry holds the tags, Sumo and the BCMA part; also called Sumo-BCMA; SumoBCMA
# T2 chain: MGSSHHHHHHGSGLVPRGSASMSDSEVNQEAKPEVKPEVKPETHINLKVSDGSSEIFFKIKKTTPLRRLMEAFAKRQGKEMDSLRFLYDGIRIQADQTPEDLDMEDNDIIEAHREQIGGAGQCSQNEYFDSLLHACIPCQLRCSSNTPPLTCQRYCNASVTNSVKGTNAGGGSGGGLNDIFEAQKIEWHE
# T3: recombinant soluble human BCMA (Biacore analyte of Example 2) (human, UniProt Q02223 1-54)
# T3 construct: also called rhu BCMA; rsol.hu BCMA
# T3 sequence: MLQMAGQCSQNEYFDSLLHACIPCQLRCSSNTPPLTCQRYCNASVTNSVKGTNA
# T4: rrat BCMA fusion protein (GS::6xHis::Sumo::ratBCMA(aa 2-49)::GGS::G3::Avi) (rat)
# T4 chain: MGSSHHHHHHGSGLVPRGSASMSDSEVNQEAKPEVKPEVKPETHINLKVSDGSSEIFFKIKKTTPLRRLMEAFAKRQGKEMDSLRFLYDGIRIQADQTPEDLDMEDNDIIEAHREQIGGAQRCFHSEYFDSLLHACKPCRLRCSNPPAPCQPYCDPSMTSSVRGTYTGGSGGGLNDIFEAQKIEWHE
# B1: 2A1 Covariance 19 (2A1_K14Q + R17G + T24A + G32S + F44V + G56S + D84N + F88T + T98A + C107A + S108K; 2A1_E144K VL) (antibody, human IgG1, lambda, V domains shown)
# VH: EVQLVESGGGLVQPGGSLRLSCAASGFTFSDYALSWVRQAPGKGLEWVSVSRSKAYGGTTDYAASVKGRFTISRDNSKSTAYLQMNSLKAEDTAVYYCAKSGYSSGWTPFDYWGQGTLVTVSS
# VL: not shown
# notes: also called Ab-37
# B2: Ab-1 (2A1CV5) (antibody, human IgG1, lambda, V domains shown)
# VH: B1 VH with Q13K, S30G, V37F, S49G, N76D, A90T, K100S
# VL: not shown
# Assays:
# [1] = biological target: T1, human BCMA (huBCMA), full length, on …; assay: FACS on H929 myeloma cells
# [2] = biological target: T2, rhuBCMA fusion protein …; assay: Biacore T200 SPR, antibody captured on anti-human IgG, rBCMA fusion as analyte, 25 C, 1:1 model
# [3] = biological target: T3, recombinant soluble human BCMA (Biacore …); assay: Biacore, recombinant soluble human BCMA; measured on parental 2A1; patent says 2A1CV5 binds identically
# [4] = biological target: T1, human BCMA (huBCMA), full length, on …; assay: FACS on H929 cells, native BCMA, relative binding, indirect
# [5] = biological target: T4, rrat BCMA fusion protein …; assay: Biacore T200 SPR, antibody captured on anti-human IgG, rBCMA fusion as analyte, 25 C
Binder,binding result [1],Kd [2] [nM],Kd [3] [nM],EC50 [4] [nM],Kd [5] [nM]
B1,binds,–,–,–,–
B2,–,0.155,0.027,1.2,> 10
